Results: patent US12576025B2, “Pharmaceutical parenteral composition of dual GLP1/2 agonist” (Zealand Pharma A/S, priority 2019, dated 2026)
*1 amine or outer side, *2 acyl side, *3 side chain or, on linkers, in order; H or OH if unused. Where no end group is shown, it is not given here. Side-chain parts run from the residue outwards. [ ]: non-standard residue; d: D form. The star is where a group is joined. C18 diacid = O=C(O)CCCCCCCCCCCCCCCCC(=O)*; γGlu = O=C(O)[C@H](CCC(=O)[*:2])N[*:1]; Aib = CC(C)(N)C(=O)O

Experiment: Physical stability via ThT fibril formation (ASSAY IVc)
Type: physicochemical
Design: key to Aggregation (ThT), no added tonicity agent / Aggregation (ThT), 270 mM mannitol: FD = Fibrillation Detected; FND = Fibrillation Not Detected
Conditions: for Aggregation (ThT), 270 mM mannitol / Aggregation (ThT), no added tonicity agent: 96 hours
Method: Samples were prepared in a total volume of 0.5 mL API (herein e.g. CPD1) stock solutions were prepared by dissolving API in demineralised water at ambient temperature (typically 25° C.) to achieve 5 and 25 mg/mL API, respectively. 8 working solutions were prepared: 1) 40 mM phosphate pH 6 and 80 μM ThT; 2) 40 mM phosphate pH 6.5 and 80 μM ThT; 3) 40 mM phosphate pH 7 and 80 μM ThT; 4) 40 mM phosphate pH 8 and 80 μM ThT; 5) 40 mM phosphate pH 6, 540 mM mannitol and 80 μM ThT; 6) 40 mM phosphate pH 6.5, 540 mM mannitol and 80 μM ThT; 7) 40 mM phosphate pH 7, 540 mM mannitol and 80 μM ThT; and 8) 40 mM phosphate pH 8, 540 mM mannitol and 80 μM ThT.
200 μL of API stock was mixed with 250 μL working solution, pH was measured and adjusted to target, followed by adding demineralised water to a final volume of 500 μL. Samples were loaded in a 96-well black fluorescence plate (clear bottom) in triplicate 3×150 μL. Data were collected at fixed intervals of 10 min, each preceded by 300 s of automixing (agitation), over a period of 96 hours at 40° C. Physical stability, expressed as lag-time of fibril formation (in hours), was defined as the intersection between two linear regressions representing the initial stable phase and the growth phase.

[1] = 2 mg/mL CPD1, 20 mM phosphate pH 6, 40° C.
[2] = 2 mg/mL CPD1, 20 mM phosphate pH 6.5, 40° C.
[3] = 2 mg/mL CPD1, 20 mM phosphate pH 7, 40° C.
[4] = 2 mg/mL CPD1, 20 mM phosphate pH 8, 40° C.
[5] = 10 mg/mL CPD1, 20 mM phosphate pH 6, 40° C.
[6] = 10 mg/mL CPD1, 20 mM phosphate pH 6.5, 40° C.
[7] = 10 mg/mL CPD1, 20 mM phosphate pH 7, 40° C.
[8] = 10 mg/mL CPD1, 20 mM phosphate pH 8, 40° C.

H[Aib]EGSFTSELATILD[ψ]QAARDFIAWLIQHKITD (H[Aib]EGSFTSELATILDK([γGlu-C18 diacid])QAARDFIAWLIQHKITD; not fully specified; printed as H[Aib]EGSFTSELATILD[ψ]QAARDFIAWLIQHKITD; also: X16: L or D lysine) [CPD1, GLP-1/GLP-2 dual agonist]
Aggregation (ThT), 270 mM mannitol [1]: FD
Aggregation (ThT), no added tonicity agent [1]: FD
Aggregation (ThT), 270 mM mannitol [2]: FND
Aggregation (ThT), no added tonicity agent [2]: FND
Aggregation (ThT), 270 mM mannitol [3]: FND
Aggregation (ThT), no added tonicity agent [3]: FND
Aggregation (ThT), 270 mM mannitol [4]: FND
Aggregation (ThT), no added tonicity agent [4]: FND
Aggregation (ThT), 270 mM mannitol [5]: FD
Aggregation (ThT), no added tonicity agent [5]: FD
Aggregation (ThT), 270 mM mannitol [6]: FND
Aggregation (ThT), no added tonicity agent [6]: FND
Aggregation (ThT), 270 mM mannitol [7]: FND
Aggregation (ThT), no added tonicity agent [7]: FND
Aggregation (ThT), 270 mM mannitol [8]: FND
Aggregation (ThT), no added tonicity agent [8]: FND
Amyloid formation / fibrillation (2 and 10 mg/mL CPD1, pH 6): amyloid formation was observed
Amyloid formation / fibrillation (2 and 10 mg/mL CPD1, pH 7 or 8): no fibrillation was observed
